In the RNAGym collection of RNA variant scans (doi:10.1101/gr.219683.116):

B1: mRNA-splicing (parent)
chain: AGUUGCUGCUGGGAGCUCCAGCACAGUGAAAUGGACAGAAGGGCAGAGCAA

Variants of: B1
Assay: exon inclusion enrichment index; higher = more inclusion; WT1 exon 5 minigene, HEK293
For G5C C6U G8C C9U U10C G21C C22A, the “exon inclusion enrichment index” value was 1.71.
With G5C C6U G8C C9U U10C G21C C22G the “exon inclusion enrichment index” value was 3.01.
For G5C C6U G8C C9U U10C G21C C22U, the “exon inclusion enrichment index” value was 1.79.
In the case of G5U C6U U7C G8U C9U, the “exon inclusion enrichment index” value is reported as 0.154.
In the case of G5C C6U U7C U10C, the “exon inclusion enrichment index” value is reported as 3.59.
For G5C C6U G8C C9U U10C G21U C22U, the “exon inclusion enrichment index” value was 0.512.
In the case of G5C C6U G8C C9U U10C G21U C22G, the “exon inclusion enrichment index” value is reported as 1.74.
For G5C C6U G8C C9U U10C G21U C22A, the “exon inclusion enrichment index” value was 0.661.
In the case of G5C C6U G8C C9U U10C G46U A47C, the “exon inclusion enrichment index” value is reported as 2.75.
In the case of G5C C6U G8C C9U U10C G46U A47G, the “exon inclusion enrichment index” value is reported as 1.76.
For G5C C6U G8C C9U U10C G46U A47U, the “exon inclusion enrichment index” value was 2.05.
For G5C C6U G8C C9U U10C G28U A29U, the “exon inclusion enrichment index” value was 0.419.
In the case of G5C C6U G8C C9U U10C G28U A29C, the “exon inclusion enrichment index” value is reported as 1.48.
With G5C C6U G8C C9U U10C G28U A29G the “exon inclusion enrichment index” value was 1.84.
With G5C C6U U7A G8A C9U U10C the “exon inclusion enrichment index” value was 0.757.
For G5C C6U U7A C9A U10A, the “exon inclusion enrichment index” value was 0.0605.
For G5C C6U G8U C9A U10C, the “exon inclusion enrichment index” value was 0.494.
With G5C C6U U7C C9A U10C the “exon inclusion enrichment index” value was 3.23.
For G5C C6U G8C C9U U10C G34U, the “exon inclusion enrichment index” value was 0.391.
For G5C C6U G8C C9U U10C G34A, the “exon inclusion enrichment index” value was 1.17.
In the case of G5C C6U G8C C9U U10C G34C, the “exon inclusion enrichment index” value is reported as 0.84.
In the case of G5C C6U U7G G8C C9U U10C, the “exon inclusion enrichment index” value is reported as 1.54.
With G5C C6U G8U C9G U10C the “exon inclusion enrichment index” value was 0.68.
For G5U C6G U7A G8U C9U, the “exon inclusion enrichment index” value was 0.198.
For G5U C6G U7A G8U C9A, the “exon inclusion enrichment index” value was 0.241.
With G5U C6U U7C U10C the “exon inclusion enrichment index” value was 3.03.
With G5U C6A U7A G8U C9U the “exon inclusion enrichment index” value was 0.0678.
In the case of G5U C6A U7A G8U C9A, the “exon inclusion enrichment index” value is reported as 0.0741.
In the case of G5C C6U G8C C9U U10C G26C U27C, the “exon inclusion enrichment index” value is reported as 3.12.
For G5C C6U G8C C9U U10C G26C U27A, the “exon inclusion enrichment index” value was 2.14.
For G5C C6U G8C C9U U10C G26C U27G, the “exon inclusion enrichment index” value was 3.22.
In the case of G5U C6G U7C U10C, the “exon inclusion enrichment index” value is reported as 2.34.
With G5C C6U G8C C9U U10C U32C G33C the “exon inclusion enrichment index” value was 2.66.
With G5C C6U G8C C9U U10C U32C G33A the “exon inclusion enrichment index” value was 0.84.
With G5C C6U G8C C9U U10C U32C G33U the “exon inclusion enrichment index” value was 1.28.
For G5C U7C U10C, the “exon inclusion enrichment index” value was 0.696.
In the case of G5U G8U C9U A23G C24G, the “exon inclusion enrichment index” value is reported as 0.604.
For G5U G8U C9U A23G C24A, the “exon inclusion enrichment index” value was 0.532.
For G5U G8U C9U A23G C24U, the “exon inclusion enrichment index” value was 0.0193.
In the case of G5C C6U G8C C9U U10C G34U A35G, the “exon inclusion enrichment index” value is reported as 0.537.
With G5C C6U G8C C9U U10C G34U A35C the “exon inclusion enrichment index” value was 0.683.
With G5C C6U G8C C9U U10C G34U A35U the “exon inclusion enrichment index” value was 0.377.
With G5C C6U G8U C9U the “exon inclusion enrichment index” value was 0.106.
In the case of G5U C6G G8C C9U U10C, the “exon inclusion enrichment index” value is reported as 1.09.
With G5C C6U G8C C9U U10G the “exon inclusion enrichment index” value was 1.12.
With G5U G8U C9U A20C G21C the “exon inclusion enrichment index” value was 0.0207.
In the case of G5U G8U C9U A20C G21U, the “exon inclusion enrichment index” value is reported as 0.0336.
In the case of G5U G8U C9U A20C G21A, the “exon inclusion enrichment index” value is reported as 0.0355.
For G5C C6U G8C C9U U10C G38U, the “exon inclusion enrichment index” value was 0.577.
In the case of G5C C6U G8C C9U U10C G38A, the “exon inclusion enrichment index” value is reported as 1.01.
With G5C C6U G8C C9U U10C G38C the “exon inclusion enrichment index” value was 1.28.
In the case of G5C C6U G8C C9U U10C G15C C16G, the “exon inclusion enrichment index” value is reported as 2.09.
In the case of G5C C6U G8C C9U U10C G15C C16U, the “exon inclusion enrichment index” value is reported as 1.9.
In the case of G5C C6U G8C C9U U10C G15C C16A, the “exon inclusion enrichment index” value is reported as 1.75.
With G5C U7G U10C the “exon inclusion enrichment index” value was 1.34.
With G5C U7A C9A U10A the “exon inclusion enrichment index” value was 0.367.
In the case of G5U, the “exon inclusion enrichment index” value is reported as 0.103.
In the case of G5C C6U G8C C9U U10C G26A, the “exon inclusion enrichment index” value is reported as 2.49.
For G5C C6U G8C C9U U10C G26C, the “exon inclusion enrichment index” value was 2.29.
With G5C C6U G8C C9U U10C G26U the “exon inclusion enrichment index” value was 2.06.
For G5U G8U C9A U10G, the “exon inclusion enrichment index” value was 0.0162.
In the case of G5U G8U C9A U10A, the “exon inclusion enrichment index” value is reported as 0.0322.
With G5U G8U C9A U10C the “exon inclusion enrichment index” value was 0.61.
For G5C C6U U7G U10C, the “exon inclusion enrichment index” value was 0.82.
In the case of G5U C6U U7A C9A U10A, the “exon inclusion enrichment index” value is reported as 0.0191.
With G5U C6G U7G G8U C9U the “exon inclusion enrichment index” value was 0.0864.
With G5C C6U U7C G8C C9U U10C the “exon inclusion enrichment index” value was 1.73.
For G5U C6G U7C G8U C9U, the “exon inclusion enrichment index” value was 0.349.
In the case of G5U C6A U7C C9A U10C, the “exon inclusion enrichment index” value is reported as 2.8.
In the case of G5C U7A G8C C9U U10C, the “exon inclusion enrichment index” value is reported as 0.259.
For G5C C6U G8C C9U U10C U17C C18U, the “exon inclusion enrichment index” value was 1.9.
For G5C C6U G8C C9U U10C U17C C18G, the “exon inclusion enrichment index” value was 2.39.
For G5C C6U G8C C9U U10C U17C C18A, the “exon inclusion enrichment index” value was 1.45.
In the case of G5C C6U G8C C9U U10C G41A G42U, the “exon inclusion enrichment index” value is reported as 1.71.
For G5C C6U G8C C9U U10C G41A G42A, the “exon inclusion enrichment index” value was 1.54.
In the case of G5C C6U G8C C9U U10C G41A G42C, the “exon inclusion enrichment index” value is reported as 2.67.
With G5C C6U G8C C9U U10C U27C G28A the “exon inclusion enrichment index” value was 1.89.
With G5C C6U G8C C9U U10C U27C G28C the “exon inclusion enrichment index” value was 2.52.
In the case of G5C C6U G8C C9U U10C U27C G28U, the “exon inclusion enrichment index” value is reported as 1.2.
With G5C C6U U7C G8A C9U U10C the “exon inclusion enrichment index” value was 1.99.
For G5C C6U G8C C9U U10C G21U, the “exon inclusion enrichment index” value was 1.22.
For G5C C6U G8C C9U U10C G21C, the “exon inclusion enrichment index” value was 1.57.
For G5C C6U G8C C9U U10C G21A, the “exon inclusion enrichment index” value was 1.28.
